We go through 3 variants from IntAct's records for PubMed 24508339.

The labels stand for the following.
B1: Mitochondrial dynamics protein MID51 (Mus musculus), Q8BGV8 (parent)
chain: MAGAGERKGKKDDNGIGTAIDFVLSNARLVLGVGGAAMLGIATLAVKRMYDRAISAPTSPTRLSHSGKRSWEEPNWMGSPRLLNKDMKAGLSRSLQTLPTDSSAFDTDTFCPPRPKPLARRGQVDLKKSRLRMSLQEKLLSYYRNRAAIPAGEQARAKQAAVDICAELRSFLRAKLPDMPLRDMYLSGSLYDDLQVVTADHIQLIVPLVLEQNLWSCIPGEDTIMNVPGFFLVRRENPEYFPRGSSYWDRCVVGGYLSPKTVADTFEKVVAGSINWPAIGSLLDYVIRPAPPPEALTLEVQYEKDKHLVIDFLPSVTLGDTVLVARPHRLAQYDNLWRLSLRPAETARLRALDQADSGCRSLCLKILKAICKSTPALGHLTASQLTNVILHLAQEEADWSPDMLADRFLQALRGLISYLEAGVLPSALNPKVNLFAELTPQEIDELGYTLYCSLSEPEVLLQT

Variants of B1 are the subject of the first experiment. The conditions noted are these: with Dnm1l.
As to R234A;R235A;N237A, the “effect of a mutation on the interaction” value is “disrupting interaction strength”.
V253E;G254E;G255E: the “effect of a mutation on the interaction” value is “disrupting interaction strength”.
On to E239A;Y240A;R243A, for which the “effect of a mutation on the interaction” value is “decreasing interaction strength”.

Another experiment covers variants of B1. The conditions noted are these: with Dnm1l. The source holds these as a separate data set.
Take E239A;Y240A;R243A: the “effect of a mutation on the interaction” value is on record as “disrupting interaction strength”.
